Data: US20170306368, “METHODS FOR THAXTOMIN PRODUCTION AND MODIFIED STREPTOMYCES WITH INCREASED THAXTOMIN PRODUCTION” (University of Florida Research Foundation, Inc., published 2017)

B1: cbs txtR-A probe (dsDNA)
DNA 1: TGTCAATAAGCGGGAGCGCTCCCACAGCGCTCTC
DNA 2: GAGAGCGCTGTGGGAGCGCTCCCGCTTATTGACA
B2: cbs cebR-E probe (dsDNA)
DNA 1: CCAGGTACTGTGGGAGCGCTCCCACGAGTGATGT
DNA 2: ACATCACTCGTGGGAGCGCTCCCACAGTACCTGG
B3: cbs txtB probe (dsDNA)
DNA 1: CTCCCCCAGGGGGAGCGCTCCCACTGCGCTGTA
DNA 2: TACAGCGCAGTGGGAGCGCTCCCCCTGGGGGAG
B4: cbs bglC probe (dsDNA)
DNA 1: GGTTCAGGCATGGAAGCGCTCCCATTGGTGGTCG
DNA 2: CGACCACCAATGGGAGCGCTTCCATGCCTGAACC

What was measured:
Conditions in all cases: tags: C-terminal His6 (pET-22b, E. coli); label: Cy5
CebR (SCAB57761) [1] = molecular target: T1, CebR (SCAB57761) (Streptomyces scabies 87-22); experiment: EMSA; strong binding with 20-fold excess nonspecific salmon sperm DNA; 0.08-3.2 uM CebR; pH 7.5, 0.25 mM CaCl2, 0.5 mM MgCl2, 50 mM KCl, room temperature; inhibited by cellobiose
T1 chain: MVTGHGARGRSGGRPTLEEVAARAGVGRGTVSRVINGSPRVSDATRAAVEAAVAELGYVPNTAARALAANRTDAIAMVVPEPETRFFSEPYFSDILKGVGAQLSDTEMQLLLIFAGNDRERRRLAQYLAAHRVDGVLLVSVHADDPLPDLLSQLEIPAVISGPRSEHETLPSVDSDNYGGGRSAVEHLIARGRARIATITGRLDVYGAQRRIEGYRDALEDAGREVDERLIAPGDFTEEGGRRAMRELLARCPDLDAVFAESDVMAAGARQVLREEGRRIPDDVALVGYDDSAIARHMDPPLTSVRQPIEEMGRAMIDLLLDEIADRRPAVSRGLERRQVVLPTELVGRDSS

CebR (SCAB57761) [2] = molecular target: T1, CebR (SCAB57761); experiment: EMSA; strong binding, positive control; excess nonspecific salmon sperm DNA; same buffer; inhibited by cellobiose
CebR (SCAB57761) [3] = molecular target: T1, CebR (SCAB57761); experiment: EMSA; strong binding with 20-fold excess nonspecific salmon sperm DNA; same buffer; inhibited by cellobiose

Binder	binding result (CebR (SCAB57761) [2])	further results
B1		binding result (CebR (SCAB57761) [1]): binds
B2	binds	
B3		binding result (CebR (SCAB57761) [3]): binds
B4	binds	
